Experimental data from patent US20170369569A1 (KAO, published 2017).
Ends that are not written are not given here.

Key:
nonactive GIP, GIP(3-42) = biological target: T1, nonactive GIP, GIP(3-42) (human); assay: sandwich ELISA, anti-total GIP capture antibody, biotinylated anti-active GIP antibody (1 µg/mL) as detection
T1 peptide: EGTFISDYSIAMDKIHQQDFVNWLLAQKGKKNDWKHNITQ
Experimental: (§1) The reactivity of the monoclonal antibody obtained in Example 1 with active GIP was confirmed by ELISA. The amino group of the anti-active GIP monoclonal antibody was biotinylated using a NH₂ group biotinylation kit (manufactured by Dojindo Laboratories). ELISA was conducted using 1 μg/mL prepared biotinylated anti-active GIP monoclonal antibody instead of a detection antibody ‘GIP detection antibody’ (biotinylated anti-total GIP monoclonal antibody) included in Human (total) GIP ELISA kit (manufactured by Merck Millipore). Six 4-fold serial dilutions (8.2 to 2000 pg/mL) were prepared with a 2000 pg/mL solution of GIP(1-42) or GIP(3-42) as the highest concentration. The capture antibody used was an anti-total GIP monoclonal antibody (included in the Human GIP (total) ELISA kit manufactured by Merck Millipore). The detection antibody used was the biotinylated anti-active GIP monoclonal antibody. A sandwich ELISA system containing a peroxidase-streptavidin conjugate was used in detection. GIP concentrations were plotted on the X axis against absorbance of 450 nm to 590 nm on the Y axis to prepare a calibration curve (FIG. 1).

[1] = biological target: T2, PEGylated N-terminal 15 amino acids of active GIP (GIP(1-15)), antigen (1) for measurement (human, also: PEGylated, site not given here); assay: ELISA on immobilized antigen (1 µg/mL), hybridoma culture supernatant, HRP-labeled anti-mouse Ig secondary antibody
T2 construct: also called PEGylated GIP(1-15)
T2 peptide: YAEGTFISDYSIAMD
Experimental: (§2) The antigens (1) and (2) for measurement were each diluted to 1 μg/mL with PBS(−) and immobilized onto plates.

[2] = biological target: T3, GIP(1-6) synthetic peptide; assay: direct ELISA on immobilized peptide, biotinylated antibody, peroxidase-streptavidin
T3 peptide: H-YAEGTF-OH
Experimental: (§3) The synthesized 6 peptides were each diluted to 1 μg/mL with PBS(−) and immobilized onto 96-well plates. ELISA was conducted using the biotinylated anti-active GIP monoclonal antibody and a peroxidase-streptavidin conjugate for detection.

[3] = biological target: T4, GIP(1-7) synthetic peptide; assay: as above
T4 peptide: H-YAEGTFI-OH
Experimental: as §3

[4] = biological target: T5, GIP(1-6)+GIP nonspecific 4aa (random 4aa) synthetic peptide; assay: as above
T5 construct: also called GIP(1-6)+random 4aa
T5 peptide: H-YAEGTFVNLV-OH
Experimental: as §3

active GIP, GIP(1-42) = biological target: T6, active GIP, GIP(1-42) (human); assay: sandwich ELISA, anti-total GIP capture antibody, biotinylated anti-active GIP antibody (1 µg/mL) as detection, GIP 8.2 to 2000 pg/mL
T6 construct: also called human active GIP
T6 peptide: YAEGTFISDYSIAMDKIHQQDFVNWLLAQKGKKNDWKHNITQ
Experimental: as §1

[5] = biological target: T7, GIP (1-9) synthetic peptide; assay: direct ELISA on immobilized peptide (1 µg/mL), biotinylated antibody, peroxidase-streptavidin
T7 peptide: H-YAEGTFISD-OH
Experimental: as §3

[6] = biological target: T8, GIP (1-10) synthetic peptide; assay: as above
T8 construct: Free NH2 and COOH termini as printed
T8 peptide: H-YAEGTFISDY-OH
Experimental: as §3

[7] = biological target: T9, GIP(1-8) synthetic peptide; assay: as above
T9 peptide: H-YAEGTFIS-OH
Experimental: as §3

[8] = biological target: T10, PEGylated N-terminal 13 amino acids of nonactive GIP (GIP(3-15)), antigen (2) for measurement (human, also: PEGylated, site not given here); assay: ELISA on immobilized antigen, hybridoma culture supernatant, HRP-labeled anti-mouse Ig secondary antibody
T10 construct: also called PEGylated GIP(3-15)
T10 peptide: EGTFISDYSIAMD
Experimental: as §2

B1: anti-active GIP monoclonal antibody produced from hybridoma 9B9H5-B9 line (antibody, V domains shown)
VH: QVQLQQPGAELVKPGASVKLSCKASGYTFTSFWMHWVIQRPGQGLEWIGEMNPSDGRTHFNEKFKTKATLTIDTSSNTAYMELNSLTSEDSAVYYCARRMEDWGQGTLVTVSA
VL: DIKMTQSPSSMYASLGERVTITCKASQDINSYLGWFQQKPGKSPKTLIYGANRLVDGVPSRFSGSGSGQDYSLTISSLEYDDMGIYYCLQYDEFPLTFGAGTKLELKR
notes: Mouse (BALB/c) hybridoma monoclonal antibody, purified on protein A. It was amplified with a mouse IgG H chain-specific primer; also called biotinylated anti-active GIP monoclonal antibody; anti-active GIP antibody of the present invention
B1: no binding (tested: 8.2 to 2000 pg/mL) (nonactive GIP, GIP(3-42)); binds [1]; no binding (tested: peptide coated at 1 µg/mL) [2]. B1: no binding (tested: peptide coated at 1 µg/mL) [3]; no binding (tested: peptide coated at 1 µg/mL) [4]; binds (active GIP, GIP(1-42)). B1: binds [5]; binds [6]; binds [7]. B1: no binding (tested: antigen coated at 1 µg/mL) [8].
